kcat and KM data for five proteins are collected here from US11491212.

In general, kcat refers to the number of substrate molecules converted per active site and unit of time at saturation. One may read the KM as the substrate concentration at which the rate is half of its maximum.

Factor X, P00742, sequence (P00742 whole entry, looked up): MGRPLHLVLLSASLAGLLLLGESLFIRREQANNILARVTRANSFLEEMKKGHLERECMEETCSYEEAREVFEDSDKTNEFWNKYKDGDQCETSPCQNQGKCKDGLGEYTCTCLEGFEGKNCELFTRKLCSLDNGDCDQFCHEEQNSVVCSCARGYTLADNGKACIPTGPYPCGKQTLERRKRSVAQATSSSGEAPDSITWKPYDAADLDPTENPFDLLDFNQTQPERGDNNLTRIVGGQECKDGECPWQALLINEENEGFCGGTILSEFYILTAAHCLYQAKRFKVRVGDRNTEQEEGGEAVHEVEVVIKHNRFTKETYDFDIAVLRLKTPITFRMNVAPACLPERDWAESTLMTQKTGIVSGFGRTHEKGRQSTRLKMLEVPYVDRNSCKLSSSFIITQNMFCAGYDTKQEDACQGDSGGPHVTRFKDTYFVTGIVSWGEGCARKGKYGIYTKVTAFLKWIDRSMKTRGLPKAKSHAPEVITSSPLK
Factor X (FX), P00742, sequence (P00742 whole entry, looked up): as above

B1: FIXa-Y155F/K247N/N249S/R318Y/T343R/R403E (protein)
chain 1: not shown
chain 2: not shown
As to B1, the kcat with Factor X (FX), P00742 is 7.5 s⁻¹. Further, in the data set with Factor X, P00742, the KM was 0.0605 µM.

B2: FIXa-Y155F/K247N/N249S/R318Y/T343R/R403E/E410N (protein)
chain 1: not shown
chain 2: not shown
Regarding B2, in the data set with Factor X (FX), P00742, the kcat is 9 s⁻¹. Also, the KM with Factor X, P00742 was 0.0606 µM.

B3: FIXa-K247N/N249S/R318Y/T343R/R403E/E410N (protein)
chain 1: not shown
chain 2: not shown
In the case of B3, the kcat in the data set with Factor X (FX), P00742 came out at 9.5 s⁻¹. In addition, the Michaelis constant (KM) in the data set with Factor X, P00742 is 0.0805 µM.

B4: FIXa-K247N/N249S/R318Y/R338E/T343R/E410N (protein)
chain 1: not shown
chain 2: not shown
Turning to B4, in the data set with Factor X (FX), P00742, the turnover number (kcat) came out at 8.8 s⁻¹. Further, the Michaelis-Menten constant (KM) in the data set with Factor X, P00742 stood at 0.0328 µM.

B5: FIXa-Y155F/K247N/N249S/R338E/E410N (protein)
chain 1: not shown
chain 2: not shown
In the case of B5, in the data set with Factor X (FX), P00742, the catalytic constant (kcat) is 7.3 s⁻¹. Moreover, in the data set with Factor X, P00742, the KM came out at 0.0177 µM.
